Test results taken from patent US20200057047.

B1: IKKβ (immunoprecipitated from HEK293T transfectants) (enzyme, UniProt O14920 1-756, looked up, species assumed)
Inhibitor of nuclear factor kappa-B kinase subunit beta: MSWSPSLTTQTCGAWEMKERLGTGGFGNVIRWHNQETGEQIAIKQCRQELSPRNRERWCLEIQIMRRLTHPNVVAARDVPEGMQNLAPNDLPLLAMEYCQGGDLRKYLNQFENCCGLREGAILTLLSDIASALRYLHENRIIHRDLKPENIVLQQGEQRLIHKIIDLGYAKELDQGSLCTSFVGTLQYLAPELLEQQKYTVTVDYWSFGTLAFECITGFRPFLPNWQPVQWHSKVRQKSEVDIVVSEDLNGTVKFSSSLPYPNNLNSVLAERLEKWLQLMLMWHPRQRGTDPTYGPNGCFKALDDILNLKLVHILNMVTGTIHTYPVTEDESLQSLKARIQQDTGIPEEDQELLQEAGLALIPDKPATQCISDGKLNEGHTLDMDLVFLFDNSKITYETQISPRPQPESVSCILQEPKRNLAFFQLRKVWGQVWHSIQTLKEDCNRLQQGQRAAMMNLLRNNSCLSKMKNSMASMSQQLKAKLDFFKTSIQIDLEKYSEQTEFGITSDKLLLAWREMEQAVELCGRENEVKLLVERMMALQTDIVDLQRSPMGRKQGGTLDDLEEQARELYRRLREKPRDQRTEGDSQEMVRLLLQAIQSFEKKVRVIYTQLSKTVVCKQKALELLPKVEEVVSLMNEDEKTVVRLQEKRQKELWNLLKIACSKVRGPVSGSPDSMNASRLSQPGQLMSQPSTASNSLPEPAKKSEELVAEAHNLCTLLENAIQDTVREQDQSFTALDWSWLQTEEEEHSCLEQAS
B2: Flag-tagged GLK (protein)
chain: DYKDDDDKMNPGFDLSRRNPQEDFELIQRIGSGTYGDVYKARNVNTGELAAIKVIKLEPGEDFAVVQQEIIMMKDCKHPNIVAYFGSYLRRDKLWICMEFCGGGSLQDIYHVTGPLSELQIAYVSRETLQGLYYLHSKGKMHRDIKGANILLTDNGHVKLADFGVSAQITATIAKRKSFIGTPYWMAPEVAAVERKGGYNQLCDLWAVGITAIELAELQPPMFDLHPMRALFLMTKSNFQPPKLKDKMKWSNSFHHFVKMALTKNPKKRPTAEKLLQHPFVTQHLTRSLAIELLDKVNNPDHSTYHDFDDDDPEPLVAVPHRIHSTSRNVREEKTRSEITFGQVKFDPPLRKETEPHHELPDSDGFLDSSEEIYYTARSNLDLQLEYGQGHQGGYFLGANKSLLKSVEEELHQRGHVAHLEDDEGDDDESKHSTLKAKIPPPLPPKPKSIFIPQEMHSTEDENQGTIKRCPMSGSPAKPSQVPPRPPPPRLPPHKPVALGNGMSSFQLNGERDGSLCQQQNEHRGTNLSRKEKKDVPKPISNGLPPTPKVHMGACFSKVFNGCPLKIHCASSWINPDTRDQYLIFGAEEGIYTLNLNELHETSMEQLFPRRCTWLYVMNNCLLSISGKASQLYSHNLPGLFDYARQMQKLPVAIPAHKLPDRILPRKFSVSAKIPETKWCQKCCVVRNPYTGHKYLCGALQTSIVLLEWVEPMQKFMLIKHIDFPIPCPLRMFEMLVVPEQEYPLVCVGVSRGRDFNQVVRFETVNPNSTSSWFTESDTPQTNVTHVTQLERDTILVCLDCCIKIVNLQGRLKSSRKLSSELTFDFQIESIVCLQDSVLAFWKHGMQGRSFRSNEVTQEISDSTRIFRLLGSDRVVVLESRPTDNPTANSNLYILAGHENSY

Assays:
[1] = tested on: Flag-tagged RORγt (wild type)
Chain of Flag-tagged RORγt (wild type) (chain, as listed by the source): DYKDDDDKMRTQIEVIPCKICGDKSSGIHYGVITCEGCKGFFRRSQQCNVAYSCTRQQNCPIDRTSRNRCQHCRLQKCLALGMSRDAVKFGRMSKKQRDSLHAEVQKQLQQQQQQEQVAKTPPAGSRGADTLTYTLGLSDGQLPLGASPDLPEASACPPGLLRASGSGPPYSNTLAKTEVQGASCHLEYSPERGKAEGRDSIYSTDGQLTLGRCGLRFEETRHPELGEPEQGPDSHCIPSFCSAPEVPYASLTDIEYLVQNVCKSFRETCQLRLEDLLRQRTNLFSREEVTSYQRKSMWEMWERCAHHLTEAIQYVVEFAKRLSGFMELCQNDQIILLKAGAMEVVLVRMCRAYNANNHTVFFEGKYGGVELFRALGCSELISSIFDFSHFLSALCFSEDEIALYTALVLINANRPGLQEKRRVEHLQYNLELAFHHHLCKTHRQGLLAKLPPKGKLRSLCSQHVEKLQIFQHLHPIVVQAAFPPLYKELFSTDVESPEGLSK

[2] = target: Myc-tagged IQGAP1 (wild type)
Chain of Myc-tagged IQGAP1 (wild type) (chain, as listed by the source): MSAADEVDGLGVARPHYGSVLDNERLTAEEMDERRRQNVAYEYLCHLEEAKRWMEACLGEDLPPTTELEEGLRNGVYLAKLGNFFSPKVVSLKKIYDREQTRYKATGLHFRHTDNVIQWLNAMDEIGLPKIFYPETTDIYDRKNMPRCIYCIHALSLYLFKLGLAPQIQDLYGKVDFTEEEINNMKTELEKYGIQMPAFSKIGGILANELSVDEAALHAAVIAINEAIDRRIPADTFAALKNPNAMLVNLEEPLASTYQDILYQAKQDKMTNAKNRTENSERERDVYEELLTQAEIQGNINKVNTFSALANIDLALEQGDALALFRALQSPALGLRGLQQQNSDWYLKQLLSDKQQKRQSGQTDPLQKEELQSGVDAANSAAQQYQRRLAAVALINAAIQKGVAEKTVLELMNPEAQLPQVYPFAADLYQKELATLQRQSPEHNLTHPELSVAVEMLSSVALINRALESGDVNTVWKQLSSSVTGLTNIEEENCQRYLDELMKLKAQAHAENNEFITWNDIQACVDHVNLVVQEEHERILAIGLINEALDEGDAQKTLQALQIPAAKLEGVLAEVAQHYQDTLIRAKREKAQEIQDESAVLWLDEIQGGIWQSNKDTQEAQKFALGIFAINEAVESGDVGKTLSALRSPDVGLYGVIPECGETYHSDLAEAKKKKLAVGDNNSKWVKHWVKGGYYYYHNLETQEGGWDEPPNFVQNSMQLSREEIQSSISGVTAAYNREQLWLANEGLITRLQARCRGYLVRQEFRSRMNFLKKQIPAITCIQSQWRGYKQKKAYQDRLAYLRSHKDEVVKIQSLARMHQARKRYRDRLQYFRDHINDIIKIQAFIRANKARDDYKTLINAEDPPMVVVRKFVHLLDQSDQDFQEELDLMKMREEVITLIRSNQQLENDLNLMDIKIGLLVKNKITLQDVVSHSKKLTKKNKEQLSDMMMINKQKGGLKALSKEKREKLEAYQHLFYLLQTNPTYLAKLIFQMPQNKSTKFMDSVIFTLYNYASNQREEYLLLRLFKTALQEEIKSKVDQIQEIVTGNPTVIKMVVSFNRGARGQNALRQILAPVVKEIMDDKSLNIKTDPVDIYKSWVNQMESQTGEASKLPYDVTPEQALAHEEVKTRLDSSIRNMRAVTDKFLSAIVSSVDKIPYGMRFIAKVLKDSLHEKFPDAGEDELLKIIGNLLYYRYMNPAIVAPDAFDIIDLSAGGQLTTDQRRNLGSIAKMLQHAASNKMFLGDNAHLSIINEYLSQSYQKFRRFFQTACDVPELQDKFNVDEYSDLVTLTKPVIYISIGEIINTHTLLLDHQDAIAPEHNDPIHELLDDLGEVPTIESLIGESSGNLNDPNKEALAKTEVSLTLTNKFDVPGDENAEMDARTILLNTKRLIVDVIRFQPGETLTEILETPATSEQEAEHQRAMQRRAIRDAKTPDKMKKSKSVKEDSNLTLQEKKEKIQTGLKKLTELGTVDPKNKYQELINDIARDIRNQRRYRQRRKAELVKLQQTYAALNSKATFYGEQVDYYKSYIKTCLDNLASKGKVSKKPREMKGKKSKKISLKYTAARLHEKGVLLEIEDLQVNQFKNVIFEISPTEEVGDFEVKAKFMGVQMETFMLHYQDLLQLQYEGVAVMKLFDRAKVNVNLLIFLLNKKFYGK

Protein | in vitro kinase assay: RORγt phosphorylation [1] | in vitro kinase assay: IQGAP1 phosphorylation [2]
B1 | RORγt phosphorylation was induced in vitro by IKKβ | –
B2 | – | IQGAP1 phosphorylation was induced by GLK
